The values that follow come from patent US6703489 (YALE UNIVERSITY, dated 2004).

First the molecules themselves.
B1: Drosophila Serrate, full-length (expression construct Ser-mtn), expressed on Drosophila S2 cells (ligand)
chain: GNFELEILEISNTNSHLLNGYCCGMPAELRATKTIGCSPCTTAFRLCLKEYQTTEQGASISTGCSFGNATTKILGGSSFVLSDPGVGAIVLPFTFRWTKSFTLILQALDMYNTSYPDAERLIEETSYSGVILPSPEWKTLDHIGRNARITYRVRVQCAVTYYNTTCTTFCRPRDDQFGHYACGSEGQKLCLNGWQGVNCEEAICKAGCDPVHGKCDRPGECECRPGWRGPLCNECMVYPGCKHGSCNGSAWKCVCDTNWGGILCDQDLNFCGTHEPCKHGGTCENTAPDKYRCTCAEGLSGEQCEIVEHPCATRPCRNGGTCTLKTSNRTQAQVYRTSHGRSNMGRPVRRSSSMRSLDHLRPEGQALNGSSSSGLVSLGSLQLQQQLAPDFTCDCAAGWTGPTCEINIDECAGGPCEHGGTCIDLIGGFRCECPPEWHGDVCQVDVNECEAPHSAGIAANALLTTTATAIIGSNLSSTALLAALTSAVASTSLAIGPCINAKECRNQPGSFACICKEGWGGVTCAENLDDCVGQCRNGATCIDLVNDYRCACASGFTGRDCETDIDECATSPCRNGGECVDMVGKFNCICPLGYSGSLCEEAKENCTPSPCLEGHCLNTPEGYYCHCPPDRAGKHCEQLRPLCSQPPCNEGCFANVSLATSATTTTTTTTTATTTRKMAKPSGLPCSGHGSCEMSDVGTFCKCHVGHTGTFCEHNLNECSPNPCRNGGICLDGDGDFTCECMSGWTGKRCSERATGCYAGQCQNGGTCMPGAPDKALQPHCRCAPGWTGLFCAEAIDQCRGQPCHNGGTCESGAGWFRCVCAQGFSGPDCRINVNECSPQPCQGGATCIDGIGGYSCICPPGRHGLRCEILLSDPKSACQNASNTISPYTALNRSQNWLDIALTGRTEDDENCNACVCENGTSRCTNLWCGLPNCYKVDPLSKSSNLSGVCKQHEVCVPALSETCLSSPCNVRGDCRALEPSRRVAPPRLPAKSSCWPNQAVVNENCARLTILLALERVGKGASVEGLCSLVRVLLAAQLIKKPASTFGQDPGMLMVLCDLKTGTNDTVELTVSSSKLNDPQLPVAVGLLGELLSSRQLNGIQRRKELELQHAKLAALTSIVEVKLETARVADGSGHSLLIGVLCGVFIVLVGFSVFISLYWKQRLAYRTSSGMNLTPSLDALRHEEEKSNNLQNEENLRRYTNPLKGSTSSLRAATGMELSLNPAPELAASAASSSALHRSQPLFPPCDFERELDSSTGLKQAHKRSSQILLHKTQNSDMRKNTVGSLDSPRKDFGKRSINCKSMPPSSGDEGSDVLATTVMV
notes: also called full-length Serrate
B2: Drosophila Delta, expressed on cells (ligand, Drosophila melanogaster, UniProt P10041 19-833, looked up)
chain: QVHSSGSFELRLKYFSNDHGRDNEGRCCSGESDGATGKCLGSCKTRFRVCLKHYQATIDTTSQCTYGDVITPILGENSVNLTDAQRFQNKGFTNPIQFPFSFSWPGTFSLIVEAWHDTNNSGNARTNKLLIQRLLVQQVLEVSSEWKTNKSESQYTSLEYDFRVTCDLNYYGSGCAKFCRPRDDSFGHSTCSETGEIICLTGWQGDYCHIPKCAKGCEHGHCDKPNQCVCQLGWKGALCNECVLEPNCIHGTCNKPWTCICNEGWGGLYCNQDLNYCTNHRPCKNGGTCFNTGEGLYTCKCAPGYSGDDCENEIYSCDADVNPCQNGGTCIDEPHTKTGYKCHCANGWSGKMCEEKVLTCSDKPCHQGICRNVRPGLGSKGQGYQCECPIGYSGPNCDLQLDNCSPNPCINGGSCQPSGKCICPAGFSGTRCETNIDDCLGHQCENGGTCIDMVNQYRCQCVPGFHGTHCSSKVDLCLIRPCANGGTCLNLNNDYQCTCRAGFTGKDCSVDIDECSSGPCHNGGTCMNRVNSFECVCANGFRGKQCDEESYDSVTFDAHQYGATTQARADGLTNAQVVLIAVFSVAMPLVAVIAACVVFCMKRKRKRAQEKDDAEARKQNEQNAVATMHHNGSGVGVALASASLGGKTGSNSGLTFDGGNPNIIKNTWDKSVNNICASAAAAAAAAAAADECLMYGGYVASVADNNNANSDFCVAPLQRAKSQKQLNTDPTLMHRGSPAGSSAKGASGGGPGAAEGKRISVLGEGSYCSQRWPSLAAAGVAGACSSQLMAAASVAGSGAGTAQQQRSVVCGTPHM
notes: whole, on cells; That entry appears to be only part of Delta, so it was not used for the whole protein on cells; also called Delta expressing cells

Data set [1] concerns the molecule itself. Nature of the data set: cell aggregation assay, S2 cells.
For data set [2], the target named is B1. Nature of the data set: cell aggregation assay, S2 cells.

B1: in data set [1], the binding result is given as “no binding”.

B2: the binding result in data set [2] is given as “no binding”.
